Assay [1] deals with T1, GATA3 neoORF (frameshift; CSNH) peptide on HLA-B*08:01 (human).
T1 peptide: ESKIMFATL
Put plainly: cytokine release.

Assay [2] concerns the target T2, KRAS G12V peptide on HLA-A*11:01 (human).
T2 peptide: VVGAVGVGK
As to the kind of experiment: multimer staining. The source says: (§1) Neoantigen specific T cells were detected by combining HLA-multimer staining with 2 different fluorochrome conjugated recombinant HLA (HLA-A02.01, HLA-A03.01, or HLA-A11.01) multimer with neoantigen peptides. Anti-CD8, anti-CD4, anti-CD19, anti-CD16, anti-CD14, anti-CD56 and antibodies and Live/Dead IR dye (Invitrogen) were used for cell surface staining. CD8⁺ T cells were identified as CD8⁺CD4⁻CD19⁻CD16⁻CD14⁻CD56⁻IR⁻ (FIGS. 1, 2, 4A, 5, 6A, 8F, 8G, 9, 10A, 10B, 11, 13, 15, 16A and 16B). For sorting, up to 5×10⁶ cells were incubated with 1-20 μg multimer in 100 μL PBS+0.5% human serum. Antibodies and Live/Dead IR dye were used to stain the cells for an additional 30 min. After staining, cells were washed twice and diluted in PBS+0.5% human serum. Live/Dead IR dye-negative cells were gated and CD8⁺/multimer⁺ T cells were sorted on a FACSAria cell sorter (BD Biosciences).

The target in assay [3] is T3, BTK C481S peptide on HLA-A*02:01 (human).
T3 peptide: SLLNYLREM
Put plainly: multimer staining.
Excerpt: as §1

Assay [4] concerns the target T4, GATA3 neoORF (frameshift; CSNH) peptide on HLA-A*02:01 (human).
T4 peptide: MLTGPPARV
Put plainly: multimer staining.
Excerpt: as §1

Assay [5] has as its target T5, TMPRSS2:ERG gene fusion peptide on HLA-A*02:01 (human).
T5 peptide: ALNSEALSV
As to the kind of experiment: multimer staining.
Excerpt: as §1

Experimental findings from US20210340215A1 (published 2021) are described below.

B1: GATA3 TCR-3 (TCR, V domains shown)
Valpha: AQSVSQHNHHVILSEAASLELGCNYSYGGTVNLFWYVQYPGQHLQLLLKYFSGDPLVKGIKGFEAEFIKSKFSFNLRKPSVQWSDTAEYFCAVISVTGNNRKLIWGLGTSLAVNP
Vbeta: DGGITQSPKYLFRKEGQNVTLSCEQNLNHDAMYWYRQDPGQGLRLIYYSQIVNDFQKGDIAEGYSVSREKKESFPLTVTSAQKNPTAFYLCASSRTAMNTEAFFGQGTRLTVV
Turning to B1, the binding result in assay [1] is “recognises”.

B2: RAS TCR-26 (TCR, V domains shown)
Valpha: DQQVKQNSPSLSVQEGRISILNCDYTNSMFDYFLWYKKYPAEGPTFLISISSIKDKNEDGRFTVFLNKSAKHLSLHIVPSQPGDSAVYFCAANAGGTSYGKLTFGQGTILTVHP
Vbeta: EPEVTQTPSHQVTQMGQEVILRCVPISNHLYFYWYRQILGQKVEFLVSFYNNEISEKSEIFDDQFSVERPDGSNFTLKIRSTKLEDSAMYFCASSEWGSTGELFFGEGSRLTVL
For B2, the binding result in assay [2] is “recognises”.

B3: RAS TCR-27 (TCR, V domains shown)
Valpha: ELKVEQNPLFLSMQEGKNYTIYCNYSTTSDRLYWYRQDPGKSLESLFVLLSNGAVKQEGRLMASLDTKARLSTLHITAAVHDLSATYFCAVDIIGGKSTFGDGTTLTVKP
Vbeta: B2 Vbeta
As for B3, the binding result in assay [2] was “recognises”.

B4: RAS TCR-28 (TCR, V domains shown)
Valpha: DQQVKQNSPSLSVQEGRISILNCDYTNSMFDYFLWYKKYPAEGPTFLISISSIKDKNEDGRFTVFLNKSAKHLSLHIVPSQPGDSAVYFCAASAVGQEYGNKLVFGAGTILRVKS
Vbeta: DTGVSQNPRHKITKRGQNVTFRCDPISEHNRLYWYRQTLGQGPEFLTYFQNEAQLEKSRLLSDRFSAERPKGSFSTLEIQRTEQGDSAMYLCASSEYTMGTQYFGPGTRLLVL
With B4, the binding result in assay [2] is “recognises”.

B5: BTK TCR-2 (TCR, V domains shown)
Valpha: QKEVEQNSGPLSVPEGAIASLNCTYSDRGSQSFFWYRQYSGKSPELIMFIYSNGDKEDGRFTAQLNKASQYVSLLIRDSQPSDSATYLCAVNEGDSSYKLIFGSGTRLLVRP
Vbeta: DSGVTQTPKHLITATGQRVTLRCSPRSGDLSVYWYQQSLDQGLQFLIQYYNGEERAKGNILERFSAQQFPDLHSELNLSSLELGDSALYFCASSPGANEKLFFGSGTQLSVL
With B5, in assay [3], the binding result is “recognises”.

B6: BTK TCR-1 (TCR, V domains shown)
Valpha: QKEVEQNSGPLSVPEGAIASLNCTYSDRGSQSFFWYRQYSGKSPELIMFIYSNGDKEDGRFTAQLNKASQYVSLLIRDSQPSDSATYLCAVNDYGGSQGNLIFGKGTKLSVKP
Vbeta: DTGVSQNPRHKITKRGQNVTFRCDPISEHNRLYWYRQTLGQGPEFLTYFQNEAQLEKSRLLSDRFSAERPKGSFSTLEIQRTEQGDSAMYLCASSFGPDEKLFFGSGTQLSVL
Consider B6, for which the binding result in assay [3] was “recognises”.

B7: GATA3 TCR-1 (TCR, V domains shown)
Valpha: SQKIEQNSEALNIQEGKTATLTCNYTNYSPAYLQWYRQDPGRGPVFLLLIRENEKEKRKERLKVTFDTTLKQSLFHITASQPADSATYLCALDIYGNNRLAFGKGNQVVVIP
Vbeta: DVKVTQSSRYLVKRTGEKVFLECVQDMDHENMFWYRQDPGLGLRLIYFSYDVKMKEKGDIPEGYSVSREKKERFSLILESASTNQTSMYLCASSLDFVLAGSYSYNEQFFGPGTRLTVL
For B7, the binding result in assay [4] is recorded as “recognises”.

B8: TMPRSS2::ERG TCR-1 (TCR, V domains shown)
Valpha: AQKVTQAQTEISVVEKEDVTLDCVYETRDTTYYLFWYKQPPSGELVFLIRRNSFDEQNEISGRYSWNFQKSTSSFNFTITASQVVDSAVYFCALSEARVFNGANSKLTFGKGITLSVRP
Vbeta: EAGVTQFPSHSVIEKGQTVTLRCDPISGHDNLYWYRRVMGKEIKFLLHFVKESKQDESGMPNNRFLAERTGGTYSTLKVQPAELEDSGVYFCASSQADSPLHFGNGTRLTVT
B8: the binding result in assay [5] was “recognises”.
